# Results taken from patent publication US20250282880A1 (NUMAB THERAPEUTICS, published 2025).
# Where a chain is given by its changes, count along the chain named. Names and notes keep the numbering of the source.
# B1: PRO1899 (scFv)
# scFv: DIQMTQSPSSLSASVGDRVTITCQASEDIESYLAWYQQKPGKAPKLLIYRASTLAYGVPSRFSGSGSGTDFTLTISSLQPEDFATYYCLGSSYSTGSNIFGTGTKVTVLGGGGGSGGGGSGGGGSGGGGSEVQLVESGGGRVQPGGSLRLSCAASGFSSSSAHYMCWVRQAPGKGLEWIGCIYAGSRGSTYYASWAKGRFTISKASSTTVYLQMNSLRAEDTATYYCARAAFVNRGVSWIWPYYFSLWGQGTQVTVSS
# notes: optimized variant of PRO1517 (VH L12R, V103T, L144Q and RDNSKN changed to KASST, AHo 82-87); scFv VL-linker-VH; also called 44-34-C10-sc09
# B2: PRO2198 (bispecific antibody, human IgG4 S228P, kappa)
# light: DIQMTQSPSSLSARVGDRVTITCQASEDIESYLAWYQQKPGKAPKLLIYRASTLAYGVPSRFSGSGSGRDFTLTISSLQPEDFATYYCLGSSYSTGSNIFGQGTKVEIKRTVAAPSVFIFPPSDEQLKSGTASVVCLLNNFYPREAKVQWKVDNALQSGNSQESVTEQDSKDSTYSLSSTLTLSKADYEKHKVYACEVTHQGLSSPVTKSFNRGEC
# heavy: not shown
# notes: IgG4 (S228P) Morrison-H, IgG4-(scFv)2: Fab arms 44-34-C10-sc08 (anti-IL-4R), anti-IL-31 scFv 50-09-D07-sc04 fused to the C-terminus of the heavy chain; also called Morrison-H antibody PRO2198; anti-IL-4RxIL-31 bispecific antibody
# B3: PRO2199 (bispecific antibody, human IgG4 S228P, kappa)
# light: B2 light with R14S, R69T
# heavy: not shown
# notes: IgG4 (S228P) Morrison-H, IgG4-(scFv)2: Fab arms 44-34-C10-sc09 (anti-IL-4R), anti-IL-31 scFv 50-09-D07-sc04 fused to the C-terminus of the heavy chain; also called Morrison-H antibody PRO2199; anti-IL-4RxIL-31 bispecific antibody
# Tests used:
# IL-4R on HEK-Blue cells [1] = target: T1, IL-4R on HEK-Blue cells (human, UniProt P24394 26-825); assay: cell-based or functional assay
# cynomolgus IL-4R-Fc = target: T2, cynomolgus IL-4R-Fc (cynomolgus monkey (Macaca fascicularis), UniProt A0A2K5V580 33-239); assay: SPR, capture setup: cynomolgus IL-4R-Fc captured, scFv as analyte
# T2 construct: also called cynomolgus IL-4R (capture setup); not shown: Fc part
# Human IL-4R-Fc = target: T3, Human IL-4R-Fc (human, UniProt P24394 26-232); assay: SPR (Biacore T200), human IL-4R-Fc captured, scFv as analyte 0.12 to 90 nM, 1:1 model
# T3 construct: not shown: Fc part (captured via anti-human IgG-Fc)
# Description: Affinity of the 16 humanized scFvs (derived from 5 rabbit monoclonal antibodies) to human IL-4R was determined by SPR analysis on a T200 device (Biacore, GE Healthcare). Human IL-4R-Fc was captured via an anti-human IgG-Fc coupled to a carboxylmethylated dextran surface and the scFvs were injected as analyte. After each analyte injection cycle the sensor chip was regenerated and new antigen was captured. The scFvs were measured using a dose response multi-cycle kinetic assay with seven analyte concentrations ranging from 0.12 to 90 nM diluted in running buffer. Obtained sensorgrams were fitted using a 1:1 binding model.
# The scFvs were measured using a dose response multi-cycle kinetic assay with seven analyte concentrations ranging from 0.12 to 90 nM diluted in running buffer. Obtained sensorgrams were fitted using a 1:1 binding model.
# Biotinylated IL-4R = target: T4, Biotinylated IL-4R (human, UniProt P24394 26-232, limits assumed, biotinylated); assay: competitive ELISA: IL-4 coated, biotinylated IL-4R preincubated with scFv
# T4 construct: also called human IL-4R; hIL-4R
# Excerpt: Bound biotinylated IL-4R was then detected using streptavidin-HRP.
# [2] = target: T5, recombinant cynomolgus monkey IL-4R (ECD with His-tag, Acro Biosystems) (cynomolgus monkey, UniProt A0A2K5V556 26-232); assay: SPR (Biacore T200), Morrison antibody captured via anti-human IgG-Fc, cynomolgus IL-4R ECD-His as analyte, 1:1 model
# T5 construct: analyte in the SPR of the Morrison-H antibodies; also called cynomolgus IL-4R
# Description: (§1) In this SPR experiment, Morrison molecules were captured via an anti-human IgG-Fc antibody (Human Antibody Capture Kit; Biacore, Cytiva) covalently immobilized to a carboxylmethylated dextran surface (CM5 sensorchip; Biacore, Cytiva) and a titration series of human IL-4R ECD was injected as analyte. After each analyte injection cycle, the sensor chip was regenerated (MgCl₂), and new Morrison antibody was subsequently re-captured. […] The apparent dissociation (kd) and association (kₐ) rate constants and the apparent dissociation equilibrium constant (KD) were calculated with the Biacore analysis software (Biacore Evaluation software Version 3.2, Cytiva) using one-to-one Langmuir binding model and quality of the fits was monitored based on Chi2 and U-value, which are measures for the quality of the curve fitting. The binding level was calculated as the maximum stability binding achieved normalized to the theoretical Rmax. Cross-reactivity to cynomolgus monkey IL-4R was measured using the same setup as for the analysis of human IL-4R kinetics, with the difference that recombinant cynomolgus monkey IL-4R (ECD with His-tag, Acro Biosystems) protein was used as analyte instead of human IL-4R.
# IL-4R on HEK-Blue cells [3] = target: T1, IL-4R on HEK-Blue cells; assay: cell-based or functional assay; remark: listed apart in the source
# [4] = target: T6, recombinant human IL-4R protein (ECD with His Tag, Sino Biological) (human, UniProt P24394 26-232); assay: SPR (Biacore T200), Morrison antibody captured via anti-human IgG-Fc, human IL-4R ECD-His as analyte 0.175 to 45 nM, 1:1 model
# T6 construct: extracellular domain; analyte in the SPR of the Morrison-H antibodies; also called human IL-4R ECD; not shown: His tag
# Description: as §1
# IL-4R on HEK-Blue cells [5] = target: T1, IL-4R on HEK-Blue cells; assay: cell-based or functional assay; remark: listed apart in the source
Binder,Kd [2] [nM],koff [2] [s⁻¹],kon [2] [M⁻¹ s⁻¹],Kd [4] [nM],koff [4] [s⁻¹],kon [4] [M⁻¹ s⁻¹],"Mean IC50, neutralization of human IL-4-induced signaling in the stat-6 reporter gene assay (IL-4R on HEK-Blue cells [5]) [nM]","Mean rel. IC50 [IC50 dupilumab/IC50 sample], human IL-4-induced signaling (IL-4R on HEK-Blue cells [5]) [ratio]","Retained IC50 with and without IL-31 excess (n = 1) [IC50, no IL-31/IC50, with IL-31] (IL-4R on HEK-Blue cells [5]) [ratio]",also measured
B1,–,–,–,–,–,–,–,–,–,"IC50, neutralization of hIL-4 induced signaling in reporter gene assay (IL-4R on HEK-Blue cells [1]): 0.71 ng/mL; IC50, neutralization of hIL-13 induced signaling in reporter gene assay (IL-4R on HEK-Blue cells [1]): 0.56 ng/mL; rel. IC50 (IC50, dupilumab/IC50, test sample), hIL-4 induced signaling (IL-4R on HEK-Blue cells [1]): 1.61 ratio; rel. IC50 (IC50, dupilumab/IC50, test sample), hIL-13 induced signaling (IL-4R on HEK-Blue cells [1]): 1.8 ratio; Kd (cynomolgus IL-4R-Fc): 0.012 nM; koff (cynomolgus IL-4R-Fc): 0.00014 s⁻¹; kon (cynomolgus IL-4R-Fc): 1.1e+07 M⁻¹ s⁻¹; Kd (Human IL-4R-Fc): 0.00692 nM; koff (Human IL-4R-Fc): 2.04e-05 s⁻¹; kon (Human IL-4R-Fc): 2.95e+06 M⁻¹ s⁻¹; IC50 (Biotinylated IL-4R): 2.98 ng/mL; rel. IC50 (IC50, dupilumab/IC50, test sample) (Biotinylated IL-4R): 2.07 ratio"
B2,0.144,4.9e-05,370000,0.291,0.000101,352000,0.0239,0.42,0.71,"Mean IC50, neutralization of human IL-13 induced signaling in the stat-6 reporter gene assay (IL-4R on HEK-Blue cells [3]): 0.0221 nM; Mean rel. IC50 [IC50 dupilumab/IC50 sample], human IL-13 induced signaling (IL-4R on HEK-Blue cells [3]): 0.42 ratio"
B3,0.0351,3.44e-05,980000,0.197,5.76e-05,293000,0.0115,0.72,1.25,"Mean IC50, neutralization of human IL-13 induced signaling in the stat-6 reporter gene assay (single analysis) (IL-4R on HEK-Blue cells [3]): 0.0113 nM; Mean rel. IC50 [IC50 dupilumab/IC50 sample], human IL-13 induced signaling (single analysis) (IL-4R on HEK-Blue cells [3]): 0.69 ratio"
